# Reference: patent US20250197485A1, “Anti-ED-A Antibodies for the Treatment of Pulmonary Hypertension” (Universitätsklinikum Jena, priority 2022, published 2025)
# B1: F8 IgG: Chimaeric anti-ED-A antibody: human F8 VH/VL fused to murine IgG2a constant regions; heavy chain SEQ ID NO: 11, light chain SEQ ID NO: 12 (antibody)
# heavy: EVQLLESGGGLVQPGGSLRLSCAASGFTFSLFTMSWVRQAPGKGLEWVSAISGSGGSTYYADSVKGRFTISRDNSKNTLYLQMNSLRAEDTAVYYCAKSTHLYLFDYWGQGTLVTVSSAKTTAPSVYPLAPVCGDTTGSSVTLGCLVKGYFPEPVTLTWNSGSLSSGVHTFPAVLQSDLYTLSSSVTVTSSTWPSQSITCNVAHPASSTKVDKKIEPRGPTIKPCPPCKCPAPNLLGGPSVFIFPPKIKDVLMISLSPIVTCVVVDVSEDDPDVQISWFVNNVEVHTAQTQTHREDYNSTLRVVSALPIQHQDWMSGKEFKCKVNNKDLPAPIERTISKPKGSVRAPQVYVLPPPEEEMTKKQVTLTCMVTDFMPEDIYVEWTNNGKTELNYKNTEPVLDSDGSYFMYSKLRVEKKNWVERNSYSCSVVHEGLHNHHTTKSFSRTPGK
# light: EIVLTQSPGTLSLSPGERATLSCRASQSVSMPFLAWYQQKPGQAPRLLIYGASSRATGIPDRFSGSGSGTDFTLTISRLEPEDFAVYYCQQMRGRPPTFGQGTKVEIKRTDAAPTVSIFPPSSEQLTSGGASVVCFLNNFYPKDINVKWKIDGSERQNGVLNSWTDQDSKDSTYSMSSTLTLTKDEYERHNSYTCEATHKTSTSPIVKSFNRNEC
# Tests used:
# MCT-induced PH [1] = assay: Echocardiographic assessment in mouse model of MCT-induced PH; assay type: in vivo, C57BL/6 mice
# Description: PH was induced in C57BL/6 mice (bodyweight: 25-30 g). The animals were obtained from ZET facility (Zentale Experimentelle Tierhaltung) of the University Hospital Jena (UKJ, Jena, Germany). Prior to PH induction, mice were allowed to acclimatize for at least 7 days with ad libitum access to food and water as well as controlled light/dark cycles. 41 animals were investigated divided into the following five experimental groups: • 1) sham induced controls (n=7) • 2) MCT induced PH (n=12) • 3) MCT induced PH+MAC (n=6) • 4) MCT induced PH+F8 IgG (n=8) • 5) MCT induced PH+KSF IgG (n=8) For PH induction, the Monocrotaline (MCT, Carl Roth, Germany) method was used. The sham induced controls were injected with 30 μl NaCl not containing MCT at day 1 (single dose; intraperitoneally, i.p.). […] The other 4 experimental groups were injected with MCT to induce PH (single dose; intraperitoneally, i.p.; 60 mg/kg body weight; volume 30 μl). Animals in the MCT induced PH+MAC group received the drug (Macitentan, Actelion Pharmaceuticals Ltd.) from day 14 to day 28 (once daily; per os; 15 mg/kg body weight). Animals in the MCT induced PH+F8 IgG group received F8 IgG 3 times on day 14, 16 and 18 (intravenously, i.v.; 195 μg/injection; volume 200 μl). Similarly, animals in the MCT induced PH+KSF IgG group received KSF IgG 3 times on day 14, 16 and 18 (intravenously, i.v.; 195 μg/injection; volume 120 μl). Echocardiographic assessment was performed on day 28 using the Vevo 770 Rodent-Ultrasound-System, Visual Sonic, Canada, 17 MHz probe RMV176. Before echocardiography, mice were anesthetized with isoflurane for a duration time of less than 10 minutes (isoflurane-CP, 2.5V %, FiO2 1.0, oxygen per inhalation-flow dosage). Body temperature and respiratory rate were continuously monitored. All surrogate parameters of right ventricular (RV) morphology and function were assessed, among others, RV basal and medial diameters (in mm), RV length (in mm), tricuspid annular plane systolic excursion (TAPSE, in mm), right atrial area (RA area, in mm^2) or main pulmonary artery diameter (MPA, in mm). Statistical analyses were performed using IBM SPSS statistical software, version 28.0 (IBM SPSS Statistics for Windows. Armonk, NY, USA). Data are expressed as mean±standard deviation. Kruskal-Wallis and Mann-Whitney-U test were used to test for significant differences between the different groups. A p-value<0.05 as statistically significant.
# MCT-induced PH [2] = assay: Mouse model of MCT-induced PH, overall hemodynamic, echocardiographic and histopathological evaluation; assay type: in vivo, C57BL/6 mice; conditions: compared with MAC treatment
# Description: PH was induced in C57BL/6 mice (bodyweight: 25-30 g). The animals were obtained from ZET facility (Zentale Experimentelle Tierhaltung) of the University Hospital Jena (UKJ, Jena, Germany). Prior to PH induction, mice were allowed to acclimatize for at least 7 days with ad libitum access to food and water as well as controlled light/dark cycles. 41 animals were investigated divided into the following five experimental groups: • 1) sham induced controls (n=7) • 2) MCT induced PH (n=12) • 3) MCT induced PH+MAC (n=6) • 4) MCT induced PH+F8 IgG (n=8) • 5) MCT induced PH+KSF IgG (n=8) For PH induction, the Monocrotaline (MCT, Carl Roth, Germany) method was used. […] The clinical condition was assessed using an established score (clinical severity score=CSS) from 1 to 5 (1=no signs of clinical alterations, 2=low-grade impairment, 3=mid-grade impairment, 4=high-grade impairment, 5=exitus) obtained by evaluating spontaneous activity, reaction to exogenous stimuli and posture. […] Body temperature and respiratory rate were continuously monitored. All surrogate parameters of right ventricular (RV) morphology and function were assessed, among others, RV basal and medial diameters (in mm), RV length (in mm), tricuspid annular plane systolic excursion (TAPSE, in mm), right atrial area (RA area, in mm^2) or main pulmonary artery diameter (MPA, in mm). […] Data are expressed as mean±standard deviation. […]
molecule,measurement,setting,value
B1,RV medial diameter compared to the negative controls,"MCT-induced PH [1]; day 28, all groups p<0.05, F8 IgG p=0.028",significantly increased
same,RV basal diameter compared with the MCT-induced PH group without treatment,"MCT-induced PH [1]; day 28, p=0.002",significant attenuation
same,RA area compared with the MCT-induced PH group with MAC treatment,"MCT-induced PH [1]; day 28, p=0.003",significant reduction
same,TAPSE compared to the MCT-induced PH group with MAC treatment,"MCT-induced PH [1]; day 28, p=0.003",significant improvement
same,TAPSE compared to the MCT-induced PH group without treatment,"MCT-induced PH [1]; day 28, p=0.004",significant improvement
same,RV basal diameter compared with the MCT-induced PH group with KSF IgG treatment,"MCT-induced PH [1]; day 28, p=0.005",significant attenuation
same,RV basal diameter compared with the MCT-induced PH group with MAC treatment,"MCT-induced PH [1]; day 28, p=0.005",significant attenuation
same,RA area compared with the MCT-induced PH group with KSF IgG treatment,"MCT-induced PH [1]; day 28, p=0.009",significant reduction
same,RV medial diameter compared with the MCT-induced PH group with KSF IgG treatment,"MCT-induced PH [1]; day 28, p=0.010",significantly reduced
same,RV medial diameter compared with the MCT-induced PH group without treatment,"MCT-induced PH [1]; day 28, p=0.017",significantly reduced
same,RA area compared with the MCT-induced PH group without treatment,"MCT-induced PH [1]; day 28, p=0.021",significant reduction
same,TAPSE compared to the MCT-induced PH group with KSF IgG treatment,"MCT-induced PH [1]; day 28, p=0.049",significant improvement
same,echocardiographic signs of right ventricular load and dysfunction,MCT-induced PH [1]; in contrast to treatment with KSF IgG,improvement
same,"beneficial effects with respect to the majority of the parameters (RVPsys, echocardiographic signs, lung tissue damage)",MCT-induced PH [2],superior to MAC treatment
